Patent publication US20230242651A1 (published 2023)

T1: human interleukin-23 receptor (IL23R) (human, UniProt Q5VWK5 24-355, limits assumed)
T1 construct: also called human IL23R
T1 sequence (looked up): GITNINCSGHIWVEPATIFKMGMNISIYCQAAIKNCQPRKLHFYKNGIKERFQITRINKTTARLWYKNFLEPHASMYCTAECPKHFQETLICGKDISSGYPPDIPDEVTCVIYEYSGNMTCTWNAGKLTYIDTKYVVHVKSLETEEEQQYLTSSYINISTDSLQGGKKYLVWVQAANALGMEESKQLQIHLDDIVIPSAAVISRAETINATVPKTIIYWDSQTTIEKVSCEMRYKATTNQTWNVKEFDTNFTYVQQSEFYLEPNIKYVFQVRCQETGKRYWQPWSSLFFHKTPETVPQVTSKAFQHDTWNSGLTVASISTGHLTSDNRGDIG


Tests used:
[1] = biological target: T1, human interleukin-23 receptor (IL23R); test: SPR, scFv (summary table)
Method in brief: (§1)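 Binding to human IL23R was assessed by surface plasmon resonance, with values given as rate constants and dissociation constant or as a λ-capped over uncapped dissociation-constant ratio. The binders were humanized rabbit variable domains in single-chain variable fragment format on consensus germline framework pairs, with or without a λ-cap. Each was produced in E. coli as inclusion bodies and refolded after solubilization.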

[2] = biological target: T1, human interleukin-23 receptor (IL23R); test: SPR, scFv
Method in brief: as §1

| Binder | Kd [1] | Kd [2] | koff [2] | kon [2] |
| --- | --- | --- | --- | --- |
| Vκ1/VH5 consensus (uncapped), human IL23R specific scFv (scFv, scFv VL-linker-VH, made in E. coli; Vκ framework IV (uncapped, full consensus); also called Vκ1VH5 uncapped) scFv: DIQMTQSPSSLSASVGDRVTITCQASENIYSFLAWYQQKPGKAPKLLIYSASKLAAGVPSRFSGSGSGTDFTLTISSLQPEDFATYYCQQTNRYSNPDIYNVFGQGTKVEIKRGGGGSGGGGSGGGGSGGGGSEVQLVQSGAEVKKPGESLKISCKGSGIDFNSNYYMCWVRQMPGKGLEWMGCIYVGSHVNTYYANWAKGQVTISADKSISTAYLQWSSLKASDTAMYYCATSGSSVLYFKFWGQGTLVTVSS | 239 pM | 239 pM | 0.000538 s⁻¹ | 2.25e+06 M⁻¹ s⁻¹ |
| Vκ3/VH5 consensus (uncapped), human IL23R specific scFv (scFv, scFv VL-linker-VH, made in E. coli; Vκ framework IV (uncapped, full consensus); also called Vκ3VH5 uncapped) scFv: DIVLTQSPATLSLSPGERATLSCQASENIYSFLAWYQQKPGQAPRLLIYSASKLAAGVPARFSGSGSGTDFTLTISSLEPEDFAVYYCQQTNRYSNPDIYNVFGQGTKVEIKRGGGGSGGGGSGGGGSGGGGSEVQLVQSGAEVKKPGESLKISCKGSGIDFNSNYYMCWVRQMPGKGLEWMGCIYVGSHVNTYYANWAKGQVTISADKSISTAYLQWSSLKASDTAMYYCATSGSSVLYFKFWGQGTLVTVSS | 525 pM | 525 pM | 0.000904 s⁻¹ | 1.72e+06 M⁻¹ s⁻¹ |
| Vκ1/VH4 consensus (uncapped), human IL23R specific scFv (scFv, scFv VL-linker-VH, made in E. coli; Vκ framework IV (uncapped, full consensus); also called Vκ1VH4 uncapped) scFv: DIQMTQSPSSLSASVGDRVTITCQASENIYSFLAWYQQKPGKAPKLLIYSASKLAAGVPSRFSGSGSGTDFTLTISSLQPEDFATYYCQQTNRYSNPDIYNVFGQGTKVEIKRGGGGSGGGGSGGGGSGGGGSQVQLQESGPGLVKPSETLSLTCTVSGIDFNSNYYMCWIRQPPGKGLEWIGCIYVGSHVNTYYANWAKGRVTISVDTSKNQFSLKLSSVTAADTAVYYCATSGSSVLYFKFWGQGTLVTVSS | 99.1 pM | 99.1 pM | 0.000176 s⁻¹ | 1.78e+06 M⁻¹ s⁻¹ |
| Vκ1/VH3 consensus (uncapped), human IL23R specific scFv (scFv, scFv VL-linker-VH, made in E. coli; Vκ framework IV (uncapped, full consensus); also called Vκ1VH3 uncapped) scFv: DIQMTQSPSSLSASVGDRVTITCQASENIYSFLAWYQQKPGKAPKLLIYSASKLAAGVPSRFSGSGSGTDFTLTISSLQPEDFATYYCQQTNRYSNPDIYNVFGQGTKVEIKRGGGGSGGGGSGGGGSGGGGSEVQLVESGGGLVQPGGSLRLSCAASGIDFNSNYYMCWVRQAPGKGLEWVSCIYVGSHVNTYYANWAKGRFTISRDNSKNTLYLQMNSLRAEDTAVYYCATSGSSVLYFKFWGQGTLVTVSS | 34.7 pM | 34.7 pM | 5.28e-05 s⁻¹ | 1.52e+06 M⁻¹ s⁻¹ |
| Vκ3/VH4 consensus (uncapped), human IL23R specific scFv (scFv, scFv VL-linker-VH, made in E. coli; Vκ framework IV (uncapped, full consensus); also called Vκ3VH4 uncapped) scFv: DIVLTQSPATLSLSPGERATLSCQASENIYSFLAWYQQKPGQAPRLLIYSASKLAAGVPARFSGSGSGTDFTLTISSLEPEDFAVYYCQQTNRYSNPDIYNVFGQGTKVEIKRGGGGSGGGGSGGGGSGGGGSQVQLQESGPGLVKPSETLSLTCTVSGIDFNSNYYMCWIRQPPGKGLEWIGCIYVGSHVNTYYANWAKGRVTISVDTSKNQFSLKLSSVTAADTAVYYCATSGSSVLYFKFWGQGTLVTVSS | 139 pM | 139 pM | 0.000263 s⁻¹ | 1.89e+06 M⁻¹ s⁻¹ |
| Vκ1/VH2 consensus (uncapped), human IL23R specific scFv (scFv, scFv VL-linker-VH, made in E. coli; Vκ framework IV (uncapped, full consensus); also called Vκ1VH2 uncapped) scFv: DIQMTQSPSSLSASVGDRVTITCQASENIYSFLAWYQQKPGKAPKLLIYSASKLAAGVPSRFSGSGSGTDFTLTISSLQPEDFATYYCQQTNRYSNPDIYNVFGQGTKVEIKRGGGGSGGGGSGGGGSGGGGSQVQLKESGPALVKPTQTLTLTCTFSGIDFNSNYYMCWIRQPPGKALEWLACIYVGSHVNTYYANWAKGRLTISKDTSKNQVVLTMTNMDPVDTATYYCATSGSSVLYFKFWGQGTLVTVSS | 211 pM | 211 pM | 0.000333 s⁻¹ | 1.58e+06 M⁻¹ s⁻¹ |
| Vκ3/VH3 consensus (uncapped), human IL23R specific scFv (scFv, scFv VL-linker-VH, made in E. coli; Vκ framework IV (uncapped, full consensus); also called Vκ3VH3 uncapped) scFv: DIVLTQSPATLSLSPGERATLSCQASENIYSFLAWYQQKPGQAPRLLIYSASKLAAGVPARFSGSGSGTDFTLTISSLEPEDFAVYYCQQTNRYSNPDIYNVFGQGTKVEIKRGGGGSGGGGSGGGGSGGGGSEVQLVESGGGLVQPGGSLRLSCAASGIDFNSNYYMCWVRQAPGKGLEWVSCIYVGSHVNTYYANWAKGRFTISRDNSKNTLYLQMNSLRAEDTAVYYCATSGSSVLYFKFWGQGTLVTVSS | 39.5 pM | 39.5 pM | 6.52e-05 s⁻¹ | 1.65e+06 M⁻¹ s⁻¹ |
| Vκ3/VH6 consensus λ-capped, human IL23R specific scFv (scFv, scFv VL-linker-VH, made in E. coli; also called Vκ3VH6 capped) scFv: DIVLTQSPATLSLSPGERATLSCQASENIYSFLAWYQQKPGQAPRLLIYSASKLAAGVPARFSGSGSGTDFTLTISSLEPEDFAVYYCQQTNRYSNPDIYNVFGGGTKLTVLGGGGGSGGGGSGGGGSGGGGSQVQLQQSGPGLVKPSQTLSLTCAISGIDFNSNYYMCWIRQSPGRGLEWLGCIYVGSHVNTYYANWAKGRITINPDTSKNQFSLQLNSVTPEDTAVYYCATSGSSVLYFKFWGQGTLVTVSS | 394 pM | 394 pM | 0.000563 s⁻¹ | 1.43e+06 M⁻¹ s⁻¹ |
| Vκ1/VH1A consensus (uncapped), human IL23R specific scFv (scFv, scFv VL-linker-VH, made in E. coli; Vκ framework IV (uncapped, full consensus); also called Vκ1VH1A uncapped) scFv: DIQMTQSPSSLSASVGDRVTITCQASENIYSFLAWYQQKPGKAPKLLIYSASKLAAGVPSRFSGSGSGTDFTLTISSLQPEDFATYYCQQTNRYSNPDIYNVFGQGTKVEIKRGGGGSGGGGSGGGGSGGGGSQVQLVQSGAEVKKPGSSVKVSCKASGIDFNSNYYMCWVRQAPGQGLEWMGCIYVGSHVNTYYANWAKGRVTITADESTSTAYMELSSLRSEDTAVYYCATSGSSVLYFKFWGQGTLVTVSS | 20 pM | 20 pM | 0.000128 s⁻¹ | 6.42e+06 M⁻¹ s⁻¹ |
| Vκ1/VH1B consensus (uncapped), human IL23R specific scFv (scFv, scFv VL-linker-VH, made in E. coli; Vκ framework IV (uncapped, full consensus); also called Vκ1VH1B uncapped) scFv: DIQMTQSPSSLSASVGDRVTITCQASENIYSFLAWYQQKPGKAPKLLIYSASKLAAGVPSRFSGSGSGTDFTLTISSLQPEDFATYYCQQTNRYSNPDIYNVFGQGTKVEIKRGGGGSGGGGSGGGGSGGGGSQVQLVQSGAEVKKPGASVKVSCKASGIDFNSNYYMCWVRQAPGQGLEWMGCIYVGSHVNTYYANWAKGRVTMTRDTSISTAYMELSSLRSEDTAVYYCATSGSSVLYFKFWGQGTLVTVSS | 168 pM | 168 pM | 0.000413 s⁻¹ | 2.45e+06 M⁻¹ s⁻¹ |
| Vκ2/VH1A consensus (uncapped), human IL23R specific scFv (scFv, scFv VL-linker-VH, made in E. coli; Vκ framework IV (uncapped, full consensus); also called Vκ2VH1A uncapped) scFv: DIVMTQSPLSLPVTPGEPASISCQASENIYSFLAWYLQKPGQSPQLLIYSASKLAAGVPDRFSGSGSGTDFTLKISRVEAEDVGVYYCQQTNRYSNPDIYNVFGQGTKVEIKRGGGGSGGGGSGGGGSGGGGSQVQLVQSGAEVKKPGSSVKVSCKASGIDFNSNYYMCWVRQAPGQGLEWMGCIYVGSHVNTYYANWAKGRVTITADESTSTAYMELSSLRSEDTAVYYCATSGSSVLYFKFWGQGTLVTVSS | 222 pM | 222 pM | 0.000279 s⁻¹ | 1.26e+06 M⁻¹ s⁻¹ |
| Vκ2/VH1B consensus λ-capped, human IL23R specific scFv (scFv, scFv VL-linker-VH, made in E. coli; also called Vκ2VH1B capped) scFv: DIVMTQSPLSLPVTPGEPASISCQASENIYSFLAWYLQKPGQSPQLLIYSASKLAAGVPDRFSGSGSGTDFTLKISRVEAEDVGVYYCQQTNRYSNPDIYNVFGGGTKLTVLGGGGGSGGGGSGGGGSGGGGSQVQLVQSGAEVKKPGASVKVSCKASGIDFNSNYYMCWVRQAPGQGLEWMGCIYVGSHVNTYYANWAKGRVTMTRDTSISTAYMELSSLRSEDTAVYYCATSGSSVLYFKFWGQGTLVTVSS | 143 pM | 143 pM | 0.000326 s⁻¹ | 2.29e+06 M⁻¹ s⁻¹ |
| Vκ1/VH6 consensus (uncapped), human IL23R specific scFv (scFv, scFv VL-linker-VH, made in E. coli; Vκ framework IV (uncapped, full consensus); also called Vκ1VH6 uncapped) scFv: DIQMTQSPSSLSASVGDRVTITCQASENIYSFLAWYQQKPGKAPKLLIYSASKLAAGVPSRFSGSGSGTDFTLTISSLQPEDFATYYCQQTNRYSNPDIYNVFGQGTKVEIKRGGGGSGGGGSGGGGSGGGGSQVQLQQSGPGLVKPSQTLSLTCAISGIDFNSNYYMCWIRQSPGRGLEWLGCIYVGSHVNTYYANWAKGRITINPDTSKNQFSLQLNSVTPEDTAVYYCATSGSSVLYFKFWGQGTLVTVSS | 251 pM | 251 pM | 0.000309 s⁻¹ | 1.23e+06 M⁻¹ s⁻¹ |
